According to publication PMC3961674:

Molecular target: variant 92787 (77405 N-terminally fused to wild-type ubiquitin carrying an S57C substitution) (human) (UniProt P0CG48)
Assay: affinity chromatography; 92787 coupled to SulfoLink resin (1 ml columns); 200 μg of 67B89 spiked into 2 ml of PBS, NHDF cell lysate or serum, washed with PBS pH 7.4, eluted with PBS pH 2.2; fractions on SDS-PAGE

67B89 (ED-B domain of fibronectin flanked by its N-terminal domains 6 and 7 and C-terminal domains 8 and 9), sequence (P02751 1080-1541): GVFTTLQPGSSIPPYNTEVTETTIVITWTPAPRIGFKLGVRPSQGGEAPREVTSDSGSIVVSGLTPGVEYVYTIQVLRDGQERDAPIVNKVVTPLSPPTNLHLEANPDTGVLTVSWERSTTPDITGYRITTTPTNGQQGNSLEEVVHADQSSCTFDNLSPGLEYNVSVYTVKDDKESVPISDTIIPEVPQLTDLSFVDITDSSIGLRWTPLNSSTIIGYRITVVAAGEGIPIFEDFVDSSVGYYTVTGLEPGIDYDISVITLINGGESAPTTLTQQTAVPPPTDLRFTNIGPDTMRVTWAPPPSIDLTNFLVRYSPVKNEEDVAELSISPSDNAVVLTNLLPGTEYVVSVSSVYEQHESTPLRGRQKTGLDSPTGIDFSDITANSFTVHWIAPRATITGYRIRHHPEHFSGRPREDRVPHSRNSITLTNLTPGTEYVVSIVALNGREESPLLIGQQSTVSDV

percent of applied 67B89 recovered from the 92787 resin: > 85%
Substance: 67B89 (ED-B domain of fibronectin flanked by its N-terminal domains 6 and 7 and C-terminal domains 8 and 9) (from UniProt P02751-7 1080-1541) (domain or fragment)
